The target in test [1] is T1, HEK293FT cells transiently transfected with mouse L1CAM (Mus musculus, UniProt P11627).
T1 construct: expressed in transfected cells; host or cells: HEK293FT (transient)
The test is described as follows: Flow cytometry binding to HEK293FT cells transiently transfected with mouse L1CAM. As to the method:
Hybridoma Screening. Binding to human L1CAM protein was tested by ELISA and to a HEK293T cell line overexpressing human L1CAM by flow cytometry. […] Cross-reactivity to cynomolgus L1CAM was not assessed at this point, as it is >99% homologous to human L1CAM. […] The antibodies were tested for binding to MDA-MB-231 cells, a breast cancer cell line that endogenously expresses L1CAM, followed by analysis of their internalization efficacy in MDA-MB-231 cells.
Binding Analysis. […] Dissociation constants (KD) for binding to soluble human and cynomolgus monkey L1CAM-His were determined using biolayer interferometry (BLI). In addition, EC50 values for binding to cell-bound L1CAM were established by flow cytometry using HEK293T/FT cells overexpressing human or mouse L1CAM, MCF-7 cells, and MDA-MB-231 cells. In addition, the epitope regions of the mAbs were determined by BLI interaction analysis with L1CAM subdomains (Ig and FN) expressed individually, and by a BLI competition experiment to identify epitope bins.
The binding curves for each antibody and cell line normalized to secondary antibody only staining (MFI ratio) are shown in FIGS. 14A-14C. EC50 values were determined by non-linear regression (Table 70). […] It is possible that differences in the conformation and oligomerization of L1CAM, depending on the surface expression level, contributed to the binding pattern. […]
In general terms: Flow cytometry measures light scatter and fluorescence of single cells or particles in a stream.

Test [2] addresses T2, recombinant L1CAM-Fc fusion protein (Homo sapiens, UniProt P32004).
T2 construct: purchased R&D Systems; host or cells: mammalian cells
The test is described as follows: BLI binding of 76H12 Fabs to recombinant L1CAM-Fc. Particulars: L1CAM-Fc on AHC biosensors, Fab 3-200 nM, 1:1 model. An excerpt:
A total of 11 humanized 76H12 Fab variants (Fabs 2-12) were generated in addition to a chimeric 76H12 Fab (Fab 1) containing the parental murine VH and VL sequences. The chimeric Fab served as the benchmark for comparative assessment of humanized Fab variants. Humanized Fabs were first assessed by flow cytometry for binding to 293T cells engineered to overexpress L1CAM (FIG. 32A). All humanized variants bound to the L1CAM overexpressing cells, with most binding comparably to the chimeric 76H12 Fab. […] Here, recombinant L1CAM-Fc fusion protein was immobilized onto anti-Human IgG Fc Capture (AHC) biosensors and binding of Fabs was measured kinetically over a 3-200 nM concentration range. Kinetic data were fitted to a 1:1 binding model to compute association (kon) and dissociation (koff) rate constants, in addition to equilibrium dissociation constants (KD) as shown in Table 87. […] From these, Fab 3 represents the preferred humanized variant given higher identity to human germline IGHV1-46 and IGKV1-39 sequences resulting from fewer human-to-murine framework back mutations.

Where a chain is given by its changes, count along the chain named.

T2 sequence (P32004 20-1120): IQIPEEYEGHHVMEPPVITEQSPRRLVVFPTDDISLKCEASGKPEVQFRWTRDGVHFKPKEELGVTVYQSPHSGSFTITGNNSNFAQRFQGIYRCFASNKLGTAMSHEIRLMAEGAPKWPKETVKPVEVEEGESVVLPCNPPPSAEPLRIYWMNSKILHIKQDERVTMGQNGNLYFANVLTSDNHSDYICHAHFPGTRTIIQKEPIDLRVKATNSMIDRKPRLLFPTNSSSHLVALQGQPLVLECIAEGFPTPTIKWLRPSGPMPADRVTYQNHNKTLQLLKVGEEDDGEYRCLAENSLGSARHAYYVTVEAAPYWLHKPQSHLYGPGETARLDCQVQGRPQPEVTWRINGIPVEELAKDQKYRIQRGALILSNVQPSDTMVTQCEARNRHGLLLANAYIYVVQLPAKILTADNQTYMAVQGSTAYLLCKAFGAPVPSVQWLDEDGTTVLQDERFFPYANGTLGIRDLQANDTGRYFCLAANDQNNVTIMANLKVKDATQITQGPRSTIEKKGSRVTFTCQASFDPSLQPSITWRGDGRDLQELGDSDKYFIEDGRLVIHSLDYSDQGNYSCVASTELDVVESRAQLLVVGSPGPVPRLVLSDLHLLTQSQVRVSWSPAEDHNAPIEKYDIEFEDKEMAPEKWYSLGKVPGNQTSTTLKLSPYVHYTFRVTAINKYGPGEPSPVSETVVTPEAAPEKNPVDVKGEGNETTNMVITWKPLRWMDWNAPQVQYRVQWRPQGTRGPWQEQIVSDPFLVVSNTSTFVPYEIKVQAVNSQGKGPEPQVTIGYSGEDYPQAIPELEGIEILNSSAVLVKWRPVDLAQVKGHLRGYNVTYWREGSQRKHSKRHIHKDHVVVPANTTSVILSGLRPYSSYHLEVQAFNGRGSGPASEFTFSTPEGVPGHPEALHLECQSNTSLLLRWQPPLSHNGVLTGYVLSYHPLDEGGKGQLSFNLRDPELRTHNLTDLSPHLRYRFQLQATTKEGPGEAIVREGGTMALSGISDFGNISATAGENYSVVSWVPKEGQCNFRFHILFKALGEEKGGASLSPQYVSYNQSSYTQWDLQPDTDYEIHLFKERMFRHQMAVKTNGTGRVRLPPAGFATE
T1 sequence (P11627 20-1260): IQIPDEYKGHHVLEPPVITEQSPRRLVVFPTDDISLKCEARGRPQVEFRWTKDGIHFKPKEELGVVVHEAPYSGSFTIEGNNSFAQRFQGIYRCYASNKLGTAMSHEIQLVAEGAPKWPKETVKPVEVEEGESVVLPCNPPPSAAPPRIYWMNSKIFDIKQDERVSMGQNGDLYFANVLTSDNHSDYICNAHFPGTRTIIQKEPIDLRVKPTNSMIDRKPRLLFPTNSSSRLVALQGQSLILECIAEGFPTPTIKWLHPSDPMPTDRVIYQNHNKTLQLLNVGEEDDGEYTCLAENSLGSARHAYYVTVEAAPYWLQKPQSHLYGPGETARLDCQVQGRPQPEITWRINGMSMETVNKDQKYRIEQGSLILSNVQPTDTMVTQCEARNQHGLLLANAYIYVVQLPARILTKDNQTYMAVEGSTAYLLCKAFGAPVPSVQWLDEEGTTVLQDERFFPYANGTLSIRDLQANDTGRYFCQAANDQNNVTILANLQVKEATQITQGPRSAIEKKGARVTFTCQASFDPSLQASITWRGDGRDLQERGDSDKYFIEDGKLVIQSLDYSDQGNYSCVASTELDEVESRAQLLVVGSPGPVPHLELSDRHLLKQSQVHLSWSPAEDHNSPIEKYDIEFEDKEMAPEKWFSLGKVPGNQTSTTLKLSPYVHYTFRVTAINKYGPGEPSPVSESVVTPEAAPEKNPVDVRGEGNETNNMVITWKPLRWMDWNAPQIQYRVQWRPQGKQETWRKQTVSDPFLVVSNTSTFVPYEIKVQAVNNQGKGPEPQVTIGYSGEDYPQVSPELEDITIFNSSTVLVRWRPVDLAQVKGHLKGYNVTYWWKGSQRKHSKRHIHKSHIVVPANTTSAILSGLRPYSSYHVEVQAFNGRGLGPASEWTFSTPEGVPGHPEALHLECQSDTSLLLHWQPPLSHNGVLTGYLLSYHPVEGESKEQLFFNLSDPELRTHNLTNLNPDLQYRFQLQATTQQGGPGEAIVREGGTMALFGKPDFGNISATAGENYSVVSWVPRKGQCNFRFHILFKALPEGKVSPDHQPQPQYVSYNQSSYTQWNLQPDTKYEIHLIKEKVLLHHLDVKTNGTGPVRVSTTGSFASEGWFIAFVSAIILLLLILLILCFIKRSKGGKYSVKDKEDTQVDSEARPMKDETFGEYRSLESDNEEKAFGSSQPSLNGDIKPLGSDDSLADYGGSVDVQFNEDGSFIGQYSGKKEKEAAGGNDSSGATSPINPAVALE

B1: 14A10: anti-L1CAM mAb from AlivaMab mice (human variable regions, mouse IgG1 Fc); VH SEQ ID NO: 87, VL SEQ ID NO: 88 (antibody, V domains shown)
VH: EVQMVESGGGLVQPGGSLRLSCAAPGFIFSSYNMNWVRQAPGKGLEWVSYISSSSSTTYYADSVKGRFTISRDNAKNSLYLQMNSLRDEDTAVYYCASLYSGYDYYYYYGMDVWGQGTTVTVSS
VL: DIVMTQTPLSSPVSLGQPASISCRSSQSLVHSDGNTYLSWLQQRPGQPPRVLIYKISKRFSGVPDRFSGSGAGTDFTLKISRVEAEDVGVYYCMQATQFPFTFGPGTKVDIK
For B1, in test [1], the “cross-reactivity with mouse L1CAM” value was “cross-reacted with mouse L1CAM”.

B2: Fab 3: humanized 76H12 Fab variant, preferred; design in Table 86 (antibody, V domains shown)
VH: QVQLVQSGAEVKKPGASVKVSCKASGYTFTSYWMHWVRQAPGQGLEWIGNVYPGSGSTKYAQKFQGRATLTVDTSTSTVYMELSSLRSEDTAVYYCARPGNYEGFAYWGQGTLVTVSS
VL: DIQLTQSPSSLSASVGDRVTITCRASESVDSYGSSFMHWYQQKPGKPPKLLIYLASNLESGVPSRFSGSGSGTDFTLTISSLQPEDFATYYCQQNNEDPWTFGQGTKLEIK
As to B2, the “affinity for L1CAM relative to the chimeric Fab (Fab 1)” value in test [2] is “equivalent or better affinity than the chimeric Fab”.

B3: Fab 5: humanized 76H12 Fab variant; design in Table 86 (antibody, V domains shown)
VH: B2 VH
VL: B2 VL with D1N
With B3, the “affinity for L1CAM relative to the chimeric Fab (Fab 1)” value in test [2] is on record as “equivalent or better affinity than the chimeric Fab”.

B4: Fab 4: humanized 76H12 Fab variant; design in Table 86 (antibody, V domains shown)
VH: B2 VH
VL: B2 VL with G72R
Consider B4, for which the “affinity for L1CAM relative to the chimeric Fab (Fab 1)” value in test [2] is “equivalent or better affinity than the chimeric Fab”.

The values above are taken from patent publication US20250340636A1, “ANTIBODIES TARGETING L1CAM AND USES THEREOF” (MEMORIAL SLOAN-KETTERING CANCER CENTER, priority 2023, published 2025).
